Source: patent US20240294593A1 (Genentech, published 2024)

molecular target: T1, human PD-1-His (human, UniProt Q15116 25-167, limits assumed); experiment: Octet
T1 construct: Antigen of the Octet assays; not shown: His tag
T1 sequence (Q15116 25-167 limits assumed): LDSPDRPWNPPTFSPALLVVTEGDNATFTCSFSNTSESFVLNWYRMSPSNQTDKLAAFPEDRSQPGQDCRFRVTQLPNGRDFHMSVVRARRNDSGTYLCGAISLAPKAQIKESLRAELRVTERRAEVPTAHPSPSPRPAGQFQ

Binder | Kd | koff | kon
H1.1_L1 (antibody, human IgG1, kappa, V domains shown, also called VH-S30T; Kabat 30T; copies: 2 + 2) VH: EVQLVESGGGLVQPGGSLRLSCAASGFTFTSFGMHWVRQAPGKGLEWVSYISSGSSIIYYADSVKGRFTISRDNAKNSLYLQMNSLRAEDTAVYYCARGGRLVWSPDYWGQGTLVTVSS VL: DIVMTQSPDSLAVSLGERATINCKSSQSLLNSGNQKNYLTWYQQKPGQPPKLLIYWASTRESGVPDRFTGSGSGTDFTLTISSLQAEDVAVYYCQNDYSYPFTFGSGTKLEIKR | 32.1 nM | 0.00407 s⁻¹ | 127000 M⁻¹ s⁻¹
H1.3_L1 (antibody, human IgG1, kappa, V domains shown, also called VH-S30Q; Kabat 30Q; copies: 2 + 2) VH: EVQLVESGGGLVQPGGSLRLSCAASGFTFQSFGMHWVRQAPGKGLEWVSYISSGSSIIYYADSVKGRFTISRDNAKNSLYLQMNSLRAEDTAVYYCARGGRLVWSPDYWGQGTLVTVSS VL: DIVMTQSPDSLAVSLGERATINCKSSQSLLNSGNQKNYLTWYQQKPGQPPKLLIYWASTRESGVPDRFTGSGSGTDFTLTISSLQAEDVAVYYCQNDYSYPFTFGSGTKLEIKR | 40 nM | 0.00472 s⁻¹ | 118000 M⁻¹ s⁻¹
H1.2_L1 (antibody, human IgG1, kappa, V domains shown, also called VH-S30A; Kabat 30A; copies: 2 + 2) VH: EVQLVESGGGLVQPGGSLRLSCAASGFTFASFGMHWVRQAPGKGLEWVSYISSGSSIIYYADSVKGRFTISRDNAKNSLYLQMNSLRAEDTAVYYCARGGRLVWSPDYWGQGTLVTVSS VL: DIVMTQSPDSLAVSLGERATINCKSSQSLLNSGNQKNYLTWYQQKPGQPPKLLIYWASTRESGVPDRFTGSGSGTDFTLTISSLQAEDVAVYYCQNDYSYPFTFGSGTKLEIKR | 35.6 nM | 0.00432 s⁻¹ | 121000 M⁻¹ s⁻¹

molecular target: T1, human PD-1-His; experiment: Octet; remark: another data set of the same source

Binder | Kd | koff | kon
H1.70_L1 (antibody, human IgG1, kappa, V domains shown, also called VH-S59E; Kabat 54; copies: 2 + 2) VH: EVQLVESGGGLVQPGGSLRLSCAASGFTFSSFGMHWVRQAPGKGLEWVSYISSGESIIYYADSVKGRFTISRDNAKNSLYLQMNSLRAEDTAVYYCARGGRLVWSPDYWGQGTLVTVSS VL: DIVMTQSPDSLAVSLGERATINCKSSQSLLNSGNQKNYLTWYQQKPGQPPKLLIYWASTRESGVPDRFTGSGSGTDFTLTISSLQAEDVAVYYCQNDYSYPFTFGSGTKLEIKR | 48 nM | 0.00674 s⁻¹ | 140000 M⁻¹ s⁻¹
H1.62_L1 (antibody, human IgG1, kappa, V domains shown, also called VH-S59T; Kabat 54; copies: 2 + 2) VH: EVQLVESGGGLVQPGGSLRLSCAASGFTFSSFGMHWVRQAPGKGLEWVSYISSGTSIIYYADSVKGRFTISRDNAKNSLYLQMNSLRAEDTAVYYCARGGRLVWSPDYWGQGTLVTVSS VL: DIVMTQSPDSLAVSLGERATINCKSSQSLLNSGNQKNYLTWYQQKPGQPPKLLIYWASTRESGVPDRFTGSGSGTDFTLTISSLQAEDVAVYYCQNDYSYPFTFGSGTKLEIKR | 59.9 nM | 0.00774 s⁻¹ | 129000 M⁻¹ s⁻¹
H1.68_L1 (antibody, human IgG1, kappa, V domains shown, also called VH-S59K; Kabat 54; copies: 2 + 2) VH: EVQLVESGGGLVQPGGSLRLSCAASGFTFSSFGMHWVRQAPGKGLEWVSYISSGKSIIYYADSVKGRFTISRDNAKNSLYLQMNSLRAEDTAVYYCARGGRLVWSPDYWGQGTLVTVSS VL: DIVMTQSPDSLAVSLGERATINCKSSQSLLNSGNQKNYLTWYQQKPGQPPKLLIYWASTRESGVPDRFTGSGSGTDFTLTISSLQAEDVAVYYCQNDYSYPFTFGSGTKLEIKR | 74 nM | 0.00808 s⁻¹ | 109000 M⁻¹ s⁻¹
H1.58_L1 (antibody, human IgG1, kappa, V domains shown, also called VH-G56H; Kabat 53; copies: 2 + 2) VH: EVQLVESGGGLVQPGGSLRLSCAASGFTFSSFGMHWVRQAPGKGLEWVSYISSHSSIIYYADSVKGRFTISRDNAKNSLYLQMNSLRAEDTAVYYCARGGRLVWSPDYWGQGTLVTVSS VL: DIVMTQSPDSLAVSLGERATINCKSSQSLLNSGNQKNYLTWYQQKPGQPPKLLIYWASTRESGVPDRFTGSGSGTDFTLTISSLQAEDVAVYYCQNDYSYPFTFGSGTKLEIKR | 43.9 nM | 0.00544 s⁻¹ | 124000 M⁻¹ s⁻¹
H1.66_L1 (antibody, human IgG1, kappa, V domains shown, also called VH-S59V; Kabat 54; copies: 2 + 2) VH: EVQLVESGGGLVQPGGSLRLSCAASGFTFSSFGMHWVRQAPGKGLEWVSYISSGVSIIYYADSVKGRFTISRDNAKNSLYLQMNSLRAEDTAVYYCARGGRLVWSPDYWGQGTLVTVSS VL: DIVMTQSPDSLAVSLGERATINCKSSQSLLNSGNQKNYLTWYQQKPGQPPKLLIYWASTRESGVPDRFTGSGSGTDFTLTISSLQAEDVAVYYCQNDYSYPFTFGSGTKLEIKR | 112 nM | 0.0129 s⁻¹ | 115000 M⁻¹ s⁻¹
H1.71_L1 (antibody, human IgG1, kappa, V domains shown, also called VH-S60T; Kabat 55; copies: 2 + 2) VH: EVQLVESGGGLVQPGGSLRLSCAASGFTFSSFGMHWVRQAPGKGLEWVSYISSGSTIIYYADSVKGRFTISRDNAKNSLYLQMNSLRAEDTAVYYCARGGRLVWSPDYWGQGTLVTVSS VL: DIVMTQSPDSLAVSLGERATINCKSSQSLLNSGNQKNYLTWYQQKPGQPPKLLIYWASTRESGVPDRFTGSGSGTDFTLTISSLQAEDVAVYYCQNDYSYPFTFGSGTKLEIKR | 45.8 nM | 0.00505 s⁻¹ | 110000 M⁻¹ s⁻¹
H1.67_L1 (antibody, human IgG1, kappa, V domains shown, also called VH-S59H; Kabat 54; copies: 2 + 2) VH: EVQLVESGGGLVQPGGSLRLSCAASGFTFSSFGMHWVRQAPGKGLEWVSYISSGHSIIYYADSVKGRFTISRDNAKNSLYLQMNSLRAEDTAVYYCARGGRLVWSPDYWGQGTLVTVSS VL: DIVMTQSPDSLAVSLGERATINCKSSQSLLNSGNQKNYLTWYQQKPGQPPKLLIYWASTRESGVPDRFTGSGSGTDFTLTISSLQAEDVAVYYCQNDYSYPFTFGSGTKLEIKR | 49.2 nM | 0.00692 s⁻¹ | 141000 M⁻¹ s⁻¹
H1.64_L1 (antibody, human IgG1, kappa, V domains shown, also called VH-S59Q; Kabat 54; copies: 2 + 2) VH: EVQLVESGGGLVQPGGSLRLSCAASGFTFSSFGMHWVRQAPGKGLEWVSYISSGQSIIYYADSVKGRFTISRDNAKNSLYLQMNSLRAEDTAVYYCARGGRLVWSPDYWGQGTLVTVSS VL: DIVMTQSPDSLAVSLGERATINCKSSQSLLNSGNQKNYLTWYQQKPGQPPKLLIYWASTRESGVPDRFTGSGSGTDFTLTISSLQAEDVAVYYCQNDYSYPFTFGSGTKLEIKR | 59.1 nM | 0.00783 s⁻¹ | 132000 M⁻¹ s⁻¹
H1.59_L1 (antibody, human IgG1, kappa, V domains shown, also called VH-G56K; Kabat 53; copies: 2 + 2) VH: EVQLVESGGGLVQPGGSLRLSCAASGFTFSSFGMHWVRQAPGKGLEWVSYISSKSSIIYYADSVKGRFTISRDNAKNSLYLQMNSLRAEDTAVYYCARGGRLVWSPDYWGQGTLVTVSS VL: DIVMTQSPDSLAVSLGERATINCKSSQSLLNSGNQKNYLTWYQQKPGQPPKLLIYWASTRESGVPDRFTGSGSGTDFTLTISSLQAEDVAVYYCQNDYSYPFTFGSGTKLEIKR | 37.6 nM | 0.00494 s⁻¹ | 131000 M⁻¹ s⁻¹
H1.65_L1 (antibody, human IgG1, kappa, V domains shown, also called VH-S59G; Kabat 54; copies: 2 + 2) VH: EVQLVESGGGLVQPGGSLRLSCAASGFTFSSFGMHWVRQAPGKGLEWVSYISSGGSIIYYADSVKGRFTISRDNAKNSLYLQMNSLRAEDTAVYYCARGGRLVWSPDYWGQGTLVTVSS VL: DIVMTQSPDSLAVSLGERATINCKSSQSLLNSGNQKNYLTWYQQKPGQPPKLLIYWASTRESGVPDRFTGSGSGTDFTLTISSLQAEDVAVYYCQNDYSYPFTFGSGTKLEIKR | 61 nM | 0.00827 s⁻¹ | 136000 M⁻¹ s⁻¹
H1.61_L1 (antibody, human IgG1, kappa, V domains shown, also called VH-G56Y; Kabat 53; copies: 2 + 2) VH: EVQLVESGGGLVQPGGSLRLSCAASGFTFSSFGMHWVRQAPGKGLEWVSYISSYSSIIYYADSVKGRFTISRDNAKNSLYLQMNSLRAEDTAVYYCARGGRLVWSPDYWGQGTLVTVSS VL: DIVMTQSPDSLAVSLGERATINCKSSQSLLNSGNQKNYLTWYQQKPGQPPKLLIYWASTRESGVPDRFTGSGSGTDFTLTISSLQAEDVAVYYCQNDYSYPFTFGSGTKLEIKR | 41.5 nM | 0.00574 s⁻¹ | 138000 M⁻¹ s⁻¹
H1.63_L1 (antibody, human IgG1, kappa, V domains shown, also called VH-S59A; Kabat 54; copies: 2 + 2) VH: EVQLVESGGGLVQPGGSLRLSCAASGFTFSSFGMHWVRQAPGKGLEWVSYISSGASIIYYADSVKGRFTISRDNAKNSLYLQMNSLRAEDTAVYYCARGGRLVWSPDYWGQGTLVTVSS VL: DIVMTQSPDSLAVSLGERATINCKSSQSLLNSGNQKNYLTWYQQKPGQPPKLLIYWASTRESGVPDRFTGSGSGTDFTLTISSLQAEDVAVYYCQNDYSYPFTFGSGTKLEIKR | 42.4 nM | 0.00619 s⁻¹ | 146000 M⁻¹ s⁻¹
H1.72_L1 (antibody, human IgG1, kappa, V domains shown, also called VH-S60A; Kabat 55; copies: 2 + 2) VH: EVQLVESGGGLVQPGGSLRLSCAASGFTFSSFGMHWVRQAPGKGLEWVSYISSGSAIIYYADSVKGRFTISRDNAKNSLYLQMNSLRAEDTAVYYCARGGRLVWSPDYWGQGTLVTVSS VL: DIVMTQSPDSLAVSLGERATINCKSSQSLLNSGNQKNYLTWYQQKPGQPPKLLIYWASTRESGVPDRFTGSGSGTDFTLTISSLQAEDVAVYYCQNDYSYPFTFGSGTKLEIKR | 62.5 nM | 0.00701 s⁻¹ | 112000 M⁻¹ s⁻¹
H1.60_L1 (antibody, human IgG1, kappa, V domains shown, also called VH-G56L; Kabat 53; copies: 2 + 2) VH: EVQLVESGGGLVQPGGSLRLSCAASGFTFSSFGMHWVRQAPGKGLEWVSYISSLSSIIYYADSVKGRFTISRDNAKNSLYLQMNSLRAEDTAVYYCARGGRLVWSPDYWGQGTLVTVSS VL: DIVMTQSPDSLAVSLGERATINCKSSQSLLNSGNQKNYLTWYQQKPGQPPKLLIYWASTRESGVPDRFTGSGSGTDFTLTISSLQAEDVAVYYCQNDYSYPFTFGSGTKLEIKR | 35.9 nM | 0.00458 s⁻¹ | 128000 M⁻¹ s⁻¹
H1.57_L1 (antibody, human IgG1, kappa, V domains shown, also called VH-G56Q; Kabat 53Q; copies: 2 + 2) VH: EVQLVESGGGLVQPGGSLRLSCAASGFTFSSFGMHWVRQAPGKGLEWVSYISSQSSIIYYADSVKGRFTISRDNAKNSLYLQMNSLRAEDTAVYYCARGGRLVWSPDYWGQGTLVTVSS VL: DIVMTQSPDSLAVSLGERATINCKSSQSLLNSGNQKNYLTWYQQKPGQPPKLLIYWASTRESGVPDRFTGSGSGTDFTLTISSLQAEDVAVYYCQNDYSYPFTFGSGTKLEIKR | 30.9 nM | 0.00464 s⁻¹ | 150000 M⁻¹ s⁻¹
H1.69_L1 (antibody, human IgG1, kappa, V domains shown, also called VH-S59Y; Kabat 54; copies: 2 + 2) VH: EVQLVESGGGLVQPGGSLRLSCAASGFTFSSFGMHWVRQAPGKGLEWVSYISSGYSIIYYADSVKGRFTISRDNAKNSLYLQMNSLRAEDTAVYYCARGGRLVWSPDYWGQGTLVTVSS VL: DIVMTQSPDSLAVSLGERATINCKSSQSLLNSGNQKNYLTWYQQKPGQPPKLLIYWASTRESGVPDRFTGSGSGTDFTLTISSLQAEDVAVYYCQNDYSYPFTFGSGTKLEIKR | 59.6 nM | 0.00818 s⁻¹ | 137000 M⁻¹ s⁻¹
